The assay concerns the target IFNγ (UniProt P01579). Put plainly: cell-based or functional assay.
UniProt P01579, sequence (P01579 24-166 limits assumed): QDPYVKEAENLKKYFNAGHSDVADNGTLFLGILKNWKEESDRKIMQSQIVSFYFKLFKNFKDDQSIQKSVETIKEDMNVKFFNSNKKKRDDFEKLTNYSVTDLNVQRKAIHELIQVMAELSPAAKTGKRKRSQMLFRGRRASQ
Substance “hIFNγR-HG1 (from UniProt P01857 99-330) (Fc fusion)” came in with an IC50 nM, inhibition of IFNγ antiviral activity (CPE, WISH cells, EMC virus) of 26 nM and an IC50 µg/ml, inhibition of IFNγ antiviral activity (CPE, WISH cells, EMC virus) of 4.4 µg/mL.
Consider “hIFNγR-HG3 (from UniProt P01860 99-377) (Fc fusion)”, for which the IC50 nM, inhibition of IFNγ antiviral activity (CPE, WISH cells, EMC virus) amounted to 11 nM and the IC50 µg/ml, inhibition of IFNγ antiviral activity (CPE, WISH cells, EMC virus) amounted to 2 µg/mL.
soluble human IFNγ receptor (shIFNγR): the IC50 nM, inhibition of IFNγ antiviral activity (CPE, WISH cells, EMC virus) turned out to be 216 nM and the IC50 µg/ml, inhibition of IFNγ antiviral activity (CPE, WISH cells, EMC virus) amounted to 6.7 µg/mL.

Source of the values: patent publication EP0614981A1.
